Measurements reported in patent US20140087995A1 (published 2014).
Numbered stars: 1 amine (or outer) side, 2 acyl side, 3 side chain; on linkers, the order of the positions; unused ones are H or OH. Bridge positions count the residues as written; N and C are the ends. Side chains are listed from the residue outwards. Ends that are not written are not given here. * marks the point of attachment. C20 diacid = O=C(O)CCCCCCCCCCCCCCCCCCC(=O)*; γGlu = O=C(O)[C@H](CCC(=O)[*:2])N[*:1]

B1: N^ε1-[(4S)-4-carboxy-4-[[(4S)-4-carboxy-4-(19-carboxynonadecanoylamino)butanoyl]amino]butanoyl]-[Glu14,Arg17,Pro21,Pro27,Arg34,Glu35]-h-amylin (peptide)
peptide: K([γGlu-γGlu-C20 diacid])CNTATCATQRLAEFLRHSSPNFGAIPSSTNVGRETY-NH2
modifications: disulfide 2-7; N-terminus assumed
SMILES: CC[C@H](C)[C@H](NC(=O)[C@H](C)NC(=O)CNC(=O)[C@H](Cc1ccccc1)NC(=O)[C@H](CC(N)=O)NC(=O)[C@@H]1CCCN1C(=O)[C@H](CO)NC(=O)[C@H](CO)NC(=O)[C@H](Cc1c[nH]cn1)NC(=O)[C@H](CCCNC(=N)N)NC(=O)[C@H](CC(C)C)NC(=O)[C@H](Cc1ccccc1)NC(=O)[C@H](CCC(=O)O)NC(=O)[C@H](C)NC(=O)[C@H](CC(C)C)NC(=O)[C@H](CCCNC(=N)N)NC(=O)[C@H](CCC(N)=O)NC(=O)[C@@H](NC(=O)[C@H](C)NC(=O)[C@@H]1CSSC[C@H](NC(=O)[C@@H](N)CCCCNC(=O)CC[C@H](NC(=O)CC[C@H](NC(=O)CCCCCCCCCCCCCCCCCCC(=O)O)C(=O)O)C(=O)O)C(=O)N[C@@H](CC(N)=O)C(=O)N[C@@H]([C@@H](C)O)C(=O)N[C@@H](C)C(=O)N[C@@H]([C@@H](C)O)C(=O)N1)[C@@H](C)O)C(=O)N1CCC[C@H]1C(=O)N[C@@H](CO)C(=O)N[C@@H](CO)C(=O)N[C@H](C(=O)N[C@@H](CC(N)=O)C(=O)N[C@H](C(=O)NCC(=O)N[C@@H](CCCNC(=N)N)C(=O)N[C@@H](CCC(=O)O)C(=O)N[C@H](C(=O)N[C@@H](Cc1ccc(O)cc1)C(N)=O)[C@@H](C)O)C(C)C)[C@@H](C)O
B2: N^ε1-[(4S)-4-carboxy-4-[[(4S)-4-carboxy-4-(19-carboxynonadecanoylamino)butanoyl]amino]butanoyl]-[Glu14,Arg17,Pro21,Pro27,His34,Glu35]-h-amylin (peptide)
peptide: K([γGlu-γGlu-C20 diacid])CNTATCATQRLAEFLRHSSPNFGAIPSSTNVGHETY-NH2
modifications: disulfide 2-7; N-terminus assumed
SMILES: CC[C@H](C)[C@H](NC(=O)[C@H](C)NC(=O)CNC(=O)[C@H](Cc1ccccc1)NC(=O)[C@H](CC(N)=O)NC(=O)[C@@H]1CCCN1C(=O)[C@H](CO)NC(=O)[C@H](CO)NC(=O)[C@H](Cc1c[nH]cn1)NC(=O)[C@H](CCCNC(=N)N)NC(=O)[C@H](CC(C)C)NC(=O)[C@H](Cc1ccccc1)NC(=O)[C@H](CCC(=O)O)NC(=O)[C@H](C)NC(=O)[C@H](CC(C)C)NC(=O)[C@H](CCCNC(=N)N)NC(=O)[C@H](CCC(N)=O)NC(=O)[C@@H](NC(=O)[C@H](C)NC(=O)[C@@H]1CSSC[C@H](NC(=O)[C@@H](N)CCCCNC(=O)CC[C@H](NC(=O)CC[C@H](NC(=O)CCCCCCCCCCCCCCCCCCC(=O)O)C(=O)O)C(=O)O)C(=O)N[C@@H](CC(N)=O)C(=O)N[C@@H]([C@@H](C)O)C(=O)N[C@@H](C)C(=O)N[C@@H]([C@@H](C)O)C(=O)N1)[C@@H](C)O)C(=O)N1CCC[C@H]1C(=O)N[C@@H](CO)C(=O)N[C@@H](CO)C(=O)N[C@H](C(=O)N[C@@H](CC(N)=O)C(=O)N[C@H](C(=O)NCC(=O)N[C@@H](Cc1c[nH]cn1)C(=O)N[C@@H](CCC(=O)O)C(=O)N[C@H](C(=O)N[C@@H](Cc1ccc(O)cc1)C(N)=O)[C@@H](C)O)C(C)C)[C@@H](C)O

Assays:
[1] = target: T1, human calcitonin receptor (human, UniProt P30988 25-474); assay: ratio of IC50 on human calcitonin receptor to IC50 on human amylin receptor
T1 construct: whole, on cells; Membranes from stably transfected BHK cells; also called hCTR; hCT
T1 sequence (looked up): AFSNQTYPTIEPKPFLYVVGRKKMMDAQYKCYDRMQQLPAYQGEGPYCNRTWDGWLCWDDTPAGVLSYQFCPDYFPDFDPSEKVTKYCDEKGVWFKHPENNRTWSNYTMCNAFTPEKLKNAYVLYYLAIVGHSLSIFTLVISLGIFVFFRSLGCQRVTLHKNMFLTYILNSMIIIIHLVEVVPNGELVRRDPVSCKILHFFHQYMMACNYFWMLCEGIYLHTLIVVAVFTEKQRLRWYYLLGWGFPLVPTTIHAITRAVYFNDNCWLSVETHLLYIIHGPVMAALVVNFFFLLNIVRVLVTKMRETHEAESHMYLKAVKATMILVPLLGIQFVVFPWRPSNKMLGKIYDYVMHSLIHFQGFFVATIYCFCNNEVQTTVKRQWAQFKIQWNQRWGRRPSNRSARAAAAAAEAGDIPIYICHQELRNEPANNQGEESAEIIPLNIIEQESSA
Outline: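 Competition binding by SPA uses membrane preparations (35 ng/μL final) in pH 7.4 Hepes buffer with 1 mM CaCl2 and 5 mM MgCl₂. Incubation lasts 120 min at 25° C, and IC₅₀ comes from one-site fitting.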

[2] = target: T2, rat amylin receptor (rat calcitonin receptor + rat RAMP 3) (rat, UniProt P32214 25-516; Q9JJ73 23-147); assay: SPA competition vs 125I-rat amylin, membranes (Assay VI)
T2 construct: whole, on cells; Membranes prepared from transiently transfected BHK tk'ts 13 cells; also called rAmylin-R; rat amylin 3(a) receptor
T2 sequence (looked up) 1: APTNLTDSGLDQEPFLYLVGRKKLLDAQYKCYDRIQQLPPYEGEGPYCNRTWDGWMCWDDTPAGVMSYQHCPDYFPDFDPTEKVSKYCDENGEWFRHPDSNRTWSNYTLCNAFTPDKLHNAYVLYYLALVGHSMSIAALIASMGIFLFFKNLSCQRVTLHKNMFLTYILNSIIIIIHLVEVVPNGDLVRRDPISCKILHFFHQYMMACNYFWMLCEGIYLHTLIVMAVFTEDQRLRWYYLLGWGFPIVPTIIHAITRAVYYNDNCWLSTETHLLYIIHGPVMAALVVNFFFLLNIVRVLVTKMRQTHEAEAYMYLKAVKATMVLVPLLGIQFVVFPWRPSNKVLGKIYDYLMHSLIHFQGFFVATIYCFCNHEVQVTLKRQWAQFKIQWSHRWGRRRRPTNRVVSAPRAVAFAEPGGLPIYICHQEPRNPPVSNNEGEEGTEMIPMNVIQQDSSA
T2 sequence (looked up) 2: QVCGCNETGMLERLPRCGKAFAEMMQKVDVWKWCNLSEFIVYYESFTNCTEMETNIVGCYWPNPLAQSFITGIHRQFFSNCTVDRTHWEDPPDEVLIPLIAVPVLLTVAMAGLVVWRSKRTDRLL

rat calcitonin receptor [3] = target: T3, rat calcitonin receptor (rat, UniProt P32214 25-516); assay: ratio of IC50 on rat calcitonin receptor to IC50 on rat amylin receptor
T3 construct: whole, on cells; Membranes prepared from transiently transfected BHK tk'ts 13 cells; also called rCTR; rat calcitonin (a) receptor
T3 sequence (looked up): T2 sequence (looked up) 1

rat calcitonin receptor [4] = target: T3, rat calcitonin receptor; assay: SPA competition vs 125I-calcitonin, membranes (Assay VIII)

| Binder | Ratio hCT/hAmylin binding [1] | IC50 [2] [µM] | Ratio rCT/rAmylin binding (rat calcitonin receptor [3]) | IC50 (rat calcitonin receptor [4]) [µM] |
| --- | --- | --- | --- | --- |
| B1 | 14.7 | 0.00286 | 158 | 0.452 |
| B2 | 29.1 | 0.00314 | 159 | 0.498 |
